Molecular target: human recombinant adrenomedullin receptor (CRLR+RAMP3) (Homo sapiens)

EC50 (read off the curve): 1 nM
Substance: human Adrenomedullin (hADM 1-52) (peptide)
